The values below come from patent publication US20230135471A1, “UBIQUITIN VARIANTS WITH IMPROVED AFFINITY FOR 53BP1” (Integrated DNA Technologies, Inc., priority 2021, published 2023).

The assay deals with 53BP1 fragment (a.a. 1221-1718) fused to an adenylate cyclase fragment (two-hybrid) (UniProt Q12888). Briefly: cell-based or functional assay.
In turn, “i53 + T9S two-hybrid fusion (designed binder)” came in with an Experiment 1 Average Enrichment of 0.4 log2, an Experiment 1 Rep 1 Enrichment of 0.34 log2, an Experiment 1 Rep 2 Enrichment of 0.47 log2 and an Experiment 2 Average Enrichment of 0.18 log2. For the same substance, the Experiment 2 Rep 1 Enrichment turned out to be 0.19 log2 and the Experiment 2 Rep 2 Enrichment was 0.17 log2.

For the substance “i53 + E18D two-hybrid fusion (designed binder)”, the Experiment 1 Average Enrichment was -0.85 log2, the Experiment 1 Rep 1 Enrichment was -0.69 log2, the Experiment 1 Rep 2 Enrichment was -1.02 log2 and the Experiment 2 Average Enrichment came out at 0.14 log2. This substance also displayed an Experiment 2 Rep 1 Enrichment of 1.65 log2 and an Experiment 2 Rep 2 Enrichment of -1.37 log2.

In turn, “i53 + K48Q two-hybrid fusion (designed binder)” yielded an Experiment 1 Average Enrichment of 0.55 log2, an Experiment 1 Rep 1 Enrichment of 0.59 log2, an Experiment 1 Rep 2 Enrichment of 0.51 log2 and an Experiment 2 Average Enrichment of 0.34 log2. The Experiment 2 Rep 1 Enrichment is 0.2 log2 and the Experiment 2 Rep 2 Enrichment turned out to be 0.47 log2.

For the substance “i53 + N25G two-hybrid fusion (designed binder)”, the Experiment 1 Average Enrichment is 0.71 log2, the Experiment 1 Rep 1 Enrichment was 1.06 log2, the Experiment 1 Rep 2 Enrichment stood at 0.35 log2 and the Experiment 2 Average Enrichment is 0.38 log2. The substance further registered an Experiment 2 Rep 1 Enrichment of 0.57 log2 and an Experiment 2 Rep 2 Enrichment of 0.19 log2.

“i53 + K29H two-hybrid fusion (designed binder)” gave an Experiment 1 Average Enrichment of 0.17 log2, an Experiment 1 Rep 1 Enrichment of 0.02 log2, an Experiment 1 Rep 2 Enrichment of 0.32 log2 and an Experiment 2 Average Enrichment of -2.73 log2. Also, the Experiment 2 Rep 1 Enrichment was -3.26 log2 and the Experiment 2 Rep 2 Enrichment was -2.2 log2.

Regarding “i53 + S65D two-hybrid fusion (designed binder)”, the Experiment 1 Average Enrichment is 0.36 log2, the Experiment 1 Rep 1 Enrichment came out at 0.02 log2, the Experiment 1 Rep 2 Enrichment came to 0.7 log2 and the Experiment 2 Average Enrichment turned out to be 0.85 log2. Also, the Experiment 2 Rep 1 Enrichment is 0.61 log2 and the Experiment 2 Rep 2 Enrichment was 1.1 log2.

Substance “i53 + S57Q two-hybrid fusion (designed binder)” had an Experiment 1 Average Enrichment of 0.07 log2, an Experiment 1 Rep 1 Enrichment of 0.07 log2, an Experiment 1 Rep 2 Enrichment of 0.07 log2 and an Experiment 2 Average Enrichment of 0.14 log2. The substance further showed an Experiment 2 Rep 1 Enrichment of 0.27 log2 and an Experiment 2 Rep 2 Enrichment of 0.01 log2.

“i53 + K29L two-hybrid fusion (designed binder)” had an Experiment 1 Average Enrichment of 0.11 log2, an Experiment 1 Rep 1 Enrichment of 0.15 log2, an Experiment 1 Rep 2 Enrichment of 0.07 log2 and an Experiment 2 Average Enrichment of 0.26 log2. The substance also displayed an Experiment 2 Rep 1 Enrichment of 0.21 log2 and an Experiment 2 Rep 2 Enrichment of 0.3 log2.

Regarding “i53 + M1N two-hybrid fusion (designed binder)”, the Experiment 1 Average Enrichment was -0.25 log2, the Experiment 1 Rep 1 Enrichment is -0.37 log2, the Experiment 1 Rep 2 Enrichment was -0.13 log2 and the Experiment 2 Average Enrichment was 0.02 log2. The substance also returned an Experiment 2 Rep 1 Enrichment of -0.04 log2 and an Experiment 2 Rep 2 Enrichment of 0.08 log2.

With “i53 + M1F two-hybrid fusion (designed binder)”, the Experiment 1 Average Enrichment amounted to 0.8 log2, the Experiment 1 Rep 1 Enrichment was 0.71 log2, the Experiment 1 Rep 2 Enrichment was 0.9 log2 and the Experiment 2 Average Enrichment was determined as 0.36 log2. For the same substance, the Experiment 2 Rep 1 Enrichment was found to be 0.39 log2 and the Experiment 2 Rep 2 Enrichment turned out to be 0.33 log2.

Take “i53 + R74T two-hybrid fusion (designed binder)”: the Experiment 1 Average Enrichment amounted to 0.33 log2, the Experiment 1 Rep 1 Enrichment came to 0.4 log2, the Experiment 1 Rep 2 Enrichment turned out to be 0.26 log2 and the Experiment 2 Average Enrichment was 0.31 log2. For the same substance, the Experiment 2 Rep 1 Enrichment is 0.25 log2 and the Experiment 2 Rep 2 Enrichment was 0.38 log2.

“i53 + S57D two-hybrid fusion (designed binder)” yielded an Experiment 1 Average Enrichment of 1.22 log2, an Experiment 1 Rep 1 Enrichment of 1.05 log2, an Experiment 1 Rep 2 Enrichment of 1.39 log2 and an Experiment 2 Average Enrichment of 0.86 log2. The same substance yielded an Experiment 2 Rep 1 Enrichment of 0.89 log2 and an Experiment 2 Rep 2 Enrichment of 0.83 log2.

In turn, “i53 + S65E two-hybrid fusion (designed binder)” returned an Experiment 1 Average Enrichment of 1.54 log2, an Experiment 1 Rep 1 Enrichment of 1.29 log2, an Experiment 1 Rep 2 Enrichment of 1.79 log2 and an Experiment 2 Average Enrichment of 0.8 log2. The same substance displayed an Experiment 2 Rep 1 Enrichment of 0.74 log2 and an Experiment 2 Rep 2 Enrichment of 0.85 log2.

“i53 + D39S two-hybrid fusion (designed binder)” gave an Experiment 1 Average Enrichment of -1.51 log2, an Experiment 1 Rep 1 Enrichment of -2.04 log2, an Experiment 1 Rep 2 Enrichment of -0.99 log2 and an Experiment 2 Average Enrichment of 0.04 log2. The substance also returned an Experiment 2 Rep 1 Enrichment of 0.16 log2 and an Experiment 2 Rep 2 Enrichment of -0.08 log2.

As to “i53 + S65Q two-hybrid fusion (designed binder)”, the Experiment 1 Average Enrichment was 0 log2, the Experiment 1 Rep 1 Enrichment was -0.02 log2, the Experiment 1 Rep 2 Enrichment came out at 0.02 log2 and the Experiment 2 Average Enrichment is 0.12 log2. Moreover, the Experiment 2 Rep 1 Enrichment was 0.01 log2 and the Experiment 2 Rep 2 Enrichment is 0.24 log2.

With “i53 + T14N two-hybrid fusion (designed binder)”, the Experiment 1 Average Enrichment was determined as 2.76 log2, the Experiment 1 Rep 1 Enrichment stood at 2.84 log2, the Experiment 1 Rep 2 Enrichment was 2.69 log2 and the Experiment 2 Average Enrichment was found to be 1.44 log2. The Experiment 2 Rep 1 Enrichment is 1.5 log2 and the Experiment 2 Rep 2 Enrichment was 1.37 log2.

For “i53 + R54Q two-hybrid fusion (designed binder)”, the Experiment 1 Average Enrichment amounted to 0.14 log2, the Experiment 1 Rep 1 Enrichment was -0.05 log2, the Experiment 1 Rep 2 Enrichment is 0.32 log2 and the Experiment 2 Average Enrichment was -0.02 log2. The Experiment 2 Rep 1 Enrichment is -0.04 log2 and the Experiment 2 Rep 2 Enrichment amounted to 0 log2.

Substance “i53 + Q31M two-hybrid fusion (designed binder)” displayed an Experiment 1 Average Enrichment of -1.74 log2, an Experiment 1 Rep 1 Enrichment of -0.84 log2, an Experiment 1 Rep 2 Enrichment of -2.63 log2 and an Experiment 2 Average Enrichment of 0.07 log2. The substance also displayed an Experiment 2 Rep 1 Enrichment of -0.05 log2 and an Experiment 2 Rep 2 Enrichment of 0.18 log2.

In the case of “i53 + E18F two-hybrid fusion (designed binder)”, the Experiment 1 Average Enrichment worked out at 0.51 log2, the Experiment 1 Rep 1 Enrichment came to 0.09 log2, the Experiment 1 Rep 2 Enrichment came out at 0.93 log2 and the Experiment 2 Average Enrichment was found to be 0.54 log2. In addition, the Experiment 2 Rep 1 Enrichment stood at 0.22 log2 and the Experiment 2 Rep 2 Enrichment came to 0.87 log2.

“i53 + V26L two-hybrid fusion (designed binder)” registered an Experiment 1 Average Enrichment of 0.55 log2, an Experiment 1 Rep 1 Enrichment of 0.4 log2, an Experiment 1 Rep 2 Enrichment of 0.69 log2 and an Experiment 2 Average Enrichment of 0.55 log2. Besides, the Experiment 2 Rep 1 Enrichment is 0.52 log2 and the Experiment 2 Rep 2 Enrichment stood at 0.58 log2.
